The source of these data is PMC5228287 (Food chemistry, 2016).

Bounds are passed on as bounds.

The target in one series is T1, pancreatic lipase (Sus scrofa, UniProt P00591).
T1 sequence (P00591 1-450): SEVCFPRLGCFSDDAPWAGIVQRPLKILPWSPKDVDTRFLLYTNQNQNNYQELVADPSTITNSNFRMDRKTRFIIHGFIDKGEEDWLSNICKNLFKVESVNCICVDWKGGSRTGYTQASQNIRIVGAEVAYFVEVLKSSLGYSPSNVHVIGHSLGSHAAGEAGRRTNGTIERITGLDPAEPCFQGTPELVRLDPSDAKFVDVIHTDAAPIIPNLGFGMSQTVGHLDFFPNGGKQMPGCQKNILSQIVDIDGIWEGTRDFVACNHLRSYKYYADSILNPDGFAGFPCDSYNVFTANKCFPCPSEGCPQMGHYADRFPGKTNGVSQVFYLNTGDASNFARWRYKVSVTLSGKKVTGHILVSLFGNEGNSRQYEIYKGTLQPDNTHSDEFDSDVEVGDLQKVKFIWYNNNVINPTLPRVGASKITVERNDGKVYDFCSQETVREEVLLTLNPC
Kind of series: 4-NPB hydrolysis assay. The format is biochemical.

Substrate in series [1]: CCCC(=O)Oc1ccc([N+](=O)[O-])cc1
The series is described as follows: Michaelis-Menten kinetics. It is filed as biochemical, Sus scrofa.

One may read the IC50 as the midpoint of a concentration-inhibition curve. The low end stands for greater potency, the high end for weaker potency. As usually defined, the Km is the concentration of substrate that gives half-maximal velocity. Usually Vmax stands for the top rate of the reaction or transport when substrate is in excess.

Take `O=c1c(O)cc([C@H]2Oc3cc(O)cc(O)c3C[C@H]2O)cc2c([C@H]3Oc4cc(O)cc(O)c4C[C@H]3O)cc(O)c(O)c12` [TF, Theaflavin]: at pancreatic lipase, the IC50 is > 10 µM.

B1: pancreatic lipase (Sus scrofa) (protein)
chain: SEVCFPRLGCFSDDAPWAGIVQRPLKILPWSPKDVDTRFLLYTNQNQNNYQELVADPSTITNSNFRMDRKTRFIIHGFIDKGEEDWLSNICKNLFKVESVNCICVDWKGGSRTGYTQASQNIRIVGAEVAYFVEVLKSSLGYSPSNVHVIGHSLGSHAAGEAGRRTNGTIERITGLDPAEPCFQGTPELVRLDPSDAKFVDVIHTDAAPIIPNLGFGMSQTVGHLDFFPNGGKQMPGCQKNILSQIVDIDGIWEGTRDFVACNHLRSYKYYADSILNPDGFAGFPCDSYNVFTANKCFPCPSEGCPQMGHYADRFPGKTNGVSQVFYLNTGDASNFARWRYKVSVTLSGKKVTGHILVSLFGNEGNSRQYEIYKGTLQPDNTHSDEFDSDVEVGDLQKVKFIWYNNNVINPTLPRVGASKITVERNDGKVYDFCSQETVREEVLLTLNPC
With B1, in series [1], the Km worked out at 149.3 ± 24.2 µM and the Vmax came out at 1.51e-05 ± 1e-06 µmol/min/mg.
